Test [1] has as its system human IgE (cat allergic patient plasma). Kind of test: Direct binding ELISA of human IgE to coated antigen. Conditions: direct binding ELISA or similar protocol. How it is done: The basic format of these ELISA assays was a direct binding assay wherein the antigen was coated onto the wells of a 96 well microtitre dish and then antibodies in solution are added and assayed for the binding capacity. The protocol for these assays was as follows:
The peptides were conjugated to HSA (human serum albumin) by two different methods based on their chemical structure. […] Both conjugates were filter purified and dialyzed against PBS. In the ELISA assay, the unbound coating antigens were removed and the wells were blocked with 0.5% gelatin in PBS, 200 μl/well for 2 hours at room temperature. The antibody solution was a pool of plasma samples from 20 patients that were skin test positive for commercial cat extract which was serially diluted with PBS-Tween 20 (PBS with 0.05% nonionic detergent Tween-Sigma, St. Louis Mo.) and 100 μl/well was added and incubated overnight at 4° C. (plasma dilutions are tested in duplicate). […] The second antibody (biotinylated goat anti-Human IgE, 1:1000 Kirkegaard & Perry Laboratories Inc. Gaithersburg, Md.), was added at 100 μl/well for one hour at room temperature. This solution was removed and streptavidin-HRPO, 1:1000, (Southern Biotechnology Associates, Inc., Birmingham, Ala.) was then added at 100 μl/well for one hour at room temperature (all wells were washed three times with PBS-Tween between each incubation step). TMB Membrane Peroxidase Substrate system (Kirkegaard & Perry Laboratories) was freshly mixed, and added at 100 μl/well. The color was allowed to develop for 2-5 minutes. The reaction was stopped by the addition of […] of 1 M phosphoric acid. Plates are read on a Microplate EL 310 Autoreader (Biotek Instruments, Winooski, Vt.) with a 450 nm filter. The absorbance levels of duplicate wells were averaged.
Background: An ELISA detects its analyte on a solid surface through an enzyme-linked reagent.

The test system of test [2] is T cells from cat-allergic patients. Kind of test: Secondary proliferation assay of T cells primed with TRFP, peptide YXZ or peptide YZX. It is filed as cell-based, human. How it is done: The human cat allergic T cell response to peptides produced as above was examined. […] Peptide YZX was cleaved with thrombin as described in Example 25. Viable cells were then purified by Ficoll-Hypaque centrifugation and cultured for 2 additional weeks in RPMI-1640/5% AB serum containing 5 units recombinant human IL-2/ml and 5 units recombinant human IL-4/ml. The resting T cells were then tested in a secondary proliferation assay using a 96 well microtiter plate to assess T cell responses to various TRFP proteins or peptides (TRFP antigens). For assay, 2×10^4 resting T cells were cultured for 3 days at 37° C. in the presence of 2×10^4 autologous Epstein-Barr virus transformed B cells (25,000 Rads) as antigen presenting cells with various concentrations of antigen in 200 μl per well. Each well then received 1 μCi tritiated thymidine for 16 hours. The counts incorporated were collected onto glass fiber filters and processed for liquid scintillation counting. The stimulation indices for responses to each antigen were then calculated as the maximum CPM in response to antigen divided by the medium control CPM. A stimulation index of 2.5 was considered to be a positive T cell response. A summary of the results of 3 such experiments (patients 522, 519, and 386 is shown in FIG. 35a, FIG. 35b and FIG. 35c). As compared to the experiments shown in FIGS. 35a and 35b in the experiment shown in […], Fel-1.4 (chain 1, amino acid residues 6-17) was substituted for Fel-1.2 (chain 1, amino acid residues 1-17) and Fel-33.3 (chain 2, amino acid residues 26-40) was substituted for Fel-18 (chain 2, amino acid residues 23-48) in order to more closely resemble the constituent amino acids of peptides X and Z. In addition, in this experiment one peptide derived from the Y-Z junction of peptide YZX (amino acid residues 50-55 from chain 1 of TRFP and amino acid residues 14-19 from chain 2 of TRFP) and one peptide derived from the Z-X junction of peptide YZX (amino acid residues 34-39 of chain 2 of TRFP and amino acid residues 7-12 of chain 1 of TRFP) were synthesized and tested. These junction peptides were produced in order to determine whether these areas of peptide YZX produce a non-native epitope when formed in the peptide.

Another test concerns B6CBAF1 mice. Briefly: Murine T cell response after immunization with peptide YZX, IL-2 production (CTLL-2). It counts as in vivo, mouse. Conditions: mice immunized with 100 μg peptide YZX in CFA; label = antigen in culture. How it is done: 10 B6CBAF1 mice were immunized subcutaneously at the base of the tail and in the thigh region with 100 μg of peptide YZX in complete Freund's adjuvant. After 10 days, the inguinal, paraaortic, and popliteal nodes of the immunized mice were removed and pooled. The lymph node cells were suspended in cold RPMI 1640 with 1% fetal bovine serum (FBS) by passage through stainless steel mesh. The cells were washed 2 times with cold RPMI-1640 containing 1% FBS and maintained at 4° C.
The lymph node cells were plated at 4×10^6 cells/ml in RPMI 1640 with 10% FBS, 250 μg/ml penicillin G, 100 μg/ml streptomycin, and 5×10^−5 M 2-mercaptoethanol. […] After 24 hours, 50 μl of supernatant was removed from each culture and frozen overnight to eliminate live cell carryover. The supernatant was warmed to […] and washed. CTLL-2 indicator cells (ATCC # T1B 214) were added (5×10^3 cells/well). This indicator cell line requires IL-2 for continued growth. After 24 hours, H^3-thymidine (1 μCi/well) was added and the cells were further incubated for 4 hours. The plates were frozen and thawed, harvested on a Tomtec 96 well harvester (Tomtec, Orange, Conn.), and counted on a Betaplate beta counter (Pharmacia, Gaithersburg, Md.).

For test [3], the system named is human IgE. Briefly: SDS/PAGE Western immunoblot of human IgE binding, plasma from patient #417. The note with it: patient #417 plasma. How it is done:
Western immunoblot analysis of the peptides produced in above was performed. The concentration of all protein samples (e.g., TRFP, recombinant chain 1 of TRFP, recombinant chain 2 of TRFP, peptide XYZ, peptide XZY, peptide YXZ, peptide YZX, peptide ZXY and peptide ZYX) for gel electrophoresis was determined by the BCA method (Pierce Co.). All protein samples were loaded on the gel at 5 μg/lane except TRFP at 10 μg/lane. Protein separation was carried out on a 15% acrylamide gel, and transfer was performed by electroblotting at 1.5 Amps for 1.5 hours onto nitrocellulose paper (Schleicher and Schuell, 0.1 microns) in a Hoeffer apparatus according to the protocol of Towbin, H., T. Stachlin, and J. Gordon, PNAS 76:4350 (1979). Proteins were rinsed in blot solution (25 mM Tris-HCl 7.5, 0.171 M NaCl and 0.5 ml/liter Tween 20). The blot was then blocked for one hour in blocking solution (1% milk in blot solution). Plasma from patient #417, used as a primary antibody source, was diluted in blocking solution to 10% and preabsorbed for 1.5 hours with unused nitrocellulose (2 cm×15 cm). The prepared human plasma was then incubated overnight on an orbital shaker with the protein blot section of interest. Following the first antibody incubation the blot section was washed three times, each wash involved a fifteen minute incubation in blot solution. The second antibody, specific for human IgE (biotinylated goat anti-human IgE, KPL Inc.), was diluted 1:2500 in blot solution and the incubation proceeded for two hours. Excess second antibody was subsequently removed by three 15 minute incubations with blot solution. ^125I Iodinated streptavidin (Amersham) was diluted 1:2500 in blot solution and incubated with blots for 1 hour, at 2 μCi in a 50 ml incubation volume. Blot sections were then washed with blot solution until the detectable radioactivity in the waste solution decreased to background levels. The blot section was then wrapped in saran wrap and exposed to film overnight with a cronex intensifying screen at −80° C.

The test system of test [4] is human IgE. Briefly: ELISA of human IgE binding, plasma from patient #669. The note with it: patient #669 plasma. Here is the method:
Corning assay plates (#25882-96) were coated with 10 μg/ml of each coating antigen (i.e., TRFP, chain 1 (recombinant chain 1 of TRFP), chain 2 (recombinant chain 2 of TRFP), peptide XYZ, peptide XZY, peptide YXZ, peptide YZX, peptide ZXY and peptide ZYX) listed in FIG. 34 at 50 μl/well and incubated overnight at 4° C. The coating antigens were removed and the wells were blocked with 0.5% gelatin in PBS, 200 μl/well for 2 hours at room temperature. Plasma from patient #669 was serially diluted with PBS-Tween 20 (PBS with 0.05% nonionic detergent Tween-20 Sigma, St. Louis Mo.) and 100 μl/well was added and incubated overnight at 4° C. (plasma dilutions are tested in duplicate). The second antibody (biotinylated goat anti-Human IgE, 1:1000, Kirkegaard & Perry Laboratories Inc. Gaithersburg, Md.), was added at 100 μl/well for one hour at room temperature. This solution was removed and streptavidin-HRPO, 1:10,000 (Southern Biotechnology Associates, Inc., Birmingham, Ala.) was then added at 100 μl/well for one hour at room temperature (all wells were washed three times with PBS-Tween between each incubation step). TMB Membrane Peroxidase Substrate system (Kirkegaard & Perry Laboratories) was freshly mixed, and added at 100 μl/well. The color was allowed to develop for 2-5 minutes. The reaction was stopped by the addition of 100 μl/well of 1M phosphoric acid. Plates were read on a Microplate EL 310 Autoreader (Biotek Instruments, Winooski, Vt.) with a 450 nm filter. The absorbance levels of duplicate wells were averaged.

Where [5] appears, read: patient 386, T cells primed with YZX.
Setting [6] is: patient 519, cells primed with peptide YXZ.

Eight molecules from patent US7482008B1, “Human T cell reactive feline protein (TRFP) isolated from house dust and uses therefor” (Merck Patent GmbH, priority 1989, dated 2009) can be followed below.

Turning to “peptide Z: amino acid residues 14-39 from chain 2 of TRFP (SEQ. ID. NO: 19) (FFAVANGNELLLDLSLTKVNATEPER)”, in test [1], the “specific IgE binding” value is on record as “None of these peptides showed IgE binding”. Further, the T cell response entry is listed as “respond at a similar level or better” in test [2] (setting [5]); “positive responses” in test [2] (setting [6]); “respond at a similar level or better” in test [2] (patient 522, T cells primed with YXZ). For the same molecule, in the test on B6CBAF1 mice, the “T cell response of pooled lymph node cells (IL-2 production)” value (shortened to “T cell response … (IL-2 production)”) is reported as “significant response”.
On to “Fel 31-1: TRFP chain 2 amino acids 14-40 (VTQALGVKMAETCPIFYDVFFAVANGN)”, for which, in test [1], the “specific IgE binding” value is “None of these peptides showed IgE binding”.
Still for that read-out and setting: to “Fel 8-1: TRFP chain 1 amino acids 5-33 (AVKRDVDLFLTGTPDEYVEQVAQYKALPV; UniProt P30438 27-55, looked up, fragment)” belongs “None of these peptides showed IgE binding”.

B1: peptide XZY: recombinant peptide: peptide X, peptide Z and peptide Y linked in this order (protein)
chain: MGHHHHHHEFKRDVDLFLTGTPDEYVEQVAQYKALPVFFAVANGNELLLDLSLTKVNATEPERKALPVVLENARILKNCVDAKMTEEDKE
As for B1, the “T cell response … (IL-2 production)” value in the test on B6CBAF1 mice is given as “strong T cell responses”. Also, the “IgE binding, Western immunoblot” value in the test on human IgE [3] is “negative for IgE binding”.

B2: peptide ZYX: recombinant peptide: peptide Z, peptide Y and peptide X linked in this order (protein)
chain: MGHHHHHHLVPRGSFFAVANGNELLLDLSLTKVNATEPERKALPVVLENARILKNCVDAKMTEEDKEKRDVDLFLTGTPDEYVEQVAQYKALPV
As to B2, the “T cell response … (IL-2 production)” value with B6CBAF1 mice is given as “strong T cell responses”. In the test with human IgE [3], the “IgE binding, Western immunoblot” value was “negative for IgE binding”.

B3: peptide YXZ: recombinant peptide: peptide Y, peptide X and peptide Z linked in this order (protein)
chain: MGHHHHHHEFKALPVVLENARILKNCVDAKMTEEDKEKRDVDLFLTGTPDEYVEQVAQYKALPVFFAVANGNELLLDLSLTKVNATEPER
B3: the T cell response result in test [2] (setting [6]) was “positive responses”; in test [2] (patient 519, native TRFP-primed T cells), “respond”; in test [2] (patient 522, T cells primed with native TRFP, SI 2.5 positive), “positively respond”. Further, in the test with human IgE [3], the “IgE binding, Western immunoblot” value is “negative for IgE binding”.

B4: peptide YZX: recombinant peptide: peptide Y linked to peptide Z linked to peptide X (SEQ ID NO: 103) (protein)
chain: MGHHHHHHEFLVPRGSKALPVVLENARILKNCVDAKMTEEDKEFFAVANGNELLLDLSLTKVNATEPERKRDVDLFLTGTPDEYVEQVAQYKALPV
For the molecule B4, the T cell response result is listed as “respond at a similar level or better” in test [2] (setting [5]) and “positively respond” in test [2] (patient 386, T cells primed with native TRFP). In addition, the “T cell response … (IL-2 production)” value in the test with B6CBAF1 mice is “respond well”. For the same molecule, the “IgE binding, Western immunoblot” value in the test with human IgE [3] was “negative for IgE binding”.

B5: recombinant chain 2: recombinant TRFP chain 2 expressed in E. coli (protein, UniProt P30440 18-109, looked up)
Major allergen I polypeptide …: VKMAETCPIFYDVFFAVANGNELLLDLSLTKVNATEPERTAMKKIQDCYVENGLISRVLDGLVMTTISSSKDCMGEAVQNTVEDLKLNTLGR
modifications: expressed in E. coli
notes: recombinant TRFP chain 2 expressed in E. coli
With B5, the “IgE binding, Western immunoblot” value in the test with human IgE [3] was “reduced compared to chain 1”. Besides, the “IgE binding, ELISA” value in the test on human IgE [4] is listed as “somewhat lower binding”.
